The values below come from patent US20190309288A1, “TARGETED MUTAGENESIS” (THE BOARD OF TRUSTEES OF THE LELAND STANFORD JUNIOR …, priority 2016, published 2019).

One data set concerns GFP and mCherry. Description: Simultaneous mutation of two loci, flow cytometry. Type of data set: cell-based. As to conditions: cells expressing dCas9, MS2-AID*Δ. On the procedure:
Scatter plots were generated in FlowJo.
Independent mutagenesis at multiple locations is typically not possible with traditional directed evolution experiments. However, the CRISPR/Cas9 system can target multiple loci using different sgRNAs (26, 27). Accordingly, experiments were conducted using two guides, one targeting GFP (sgGFP.10) and the other targeting mCherry (sgmCherry.1), both individually and in combination.
(In general: Flow cytometry measures light scatter and fluorescence of single cells or particles in a stream.)

The next data set relates to GFP. As to conditions: cells expressing dCas9, MS2-AID*Δ, mCherry, sgRNA individually. Here is the method: (§1) Lentiviral production as well as infection and culturing of K562 cells (ATCC) were performed as described (45). Parental K562 cell lines were generated by infecting dCas9-Blast (pGH125) followed by blasticidin selection (10 μg/mL, Gibco) for 7 days. Cells were subsequently infected with both GFP (pGH045) and mCherry (pGH044) expression vectors or with a wtGFP (pGH220) expression vector and sorted via FACS for fluorescence. These cell lines were used as the parental samples in the sequencing assays. For experiments using an integrated construct, cells were infected with MS2-AID (pGH153, 156, 183, and 335) expressing vectors followed by selection with hygromycin B (200 μg/mL, Life Technologies) for 7 days. All cell lines were maintained in a humidified incubator (37° C., 5% CO2), and checked regularly for mycoplasma contamination.
(§2) Nucleofection of K562 cells was performed as described (46). 1 million K562 cells were harvested for each electroporation. Cells were centrifuged at 300×g for 5 minutes and resuspended in 100 μL of nucleofection solution and mixed with plasmid DNA (5 μg MS2-AID expressing plasmid and 5 μg sgRNA expression vector) and loaded into a 2 mm cuvette (VWR). Electroporations were performed using the T-016 program on the Lonza Nucleofector 2b. After electroporation, cells were rescued in warm, supplemented RPMI media.

Another data set has as its system mCherry. Description: mCherry fluorescence by flow cytometry as proxy for off-target mutation. The class given is cell-based. As to conditions: cells expressing dCas9, MS2-AID*Δ, GFP, sgRNA individually. Here is the method: as §1, §2
The test system of a further data set is PSMB5. Put plainly: Installation and validation of bortezomib resistant PSMB5 mutations, cell viability. Type of data set: cell-based. As to conditions: mutation knocked into K562 cells at native PSMB5 locus; 20 nM bortezomib, 14 days; compared to controls. On the procedure: sgRNAs were designed to target near the location of the installed SNP and 101-nt donor oligos were designed to be centered around the installed mutation. Oligonucleotides with proper overhangs were ordered from IDT and annealed before ligation into BbsI digested pGH020, a hu6 driven sgRNA expression vector. All plasmids were verified by Sanger sequencing.
K562 cells expressing Cas9 were electroporated with 5 μg of sgRNA expressing vector and 100 picomoles of donor oligo. Cells were grown for 6 days before 300,000 cells were placed under selection with 20 nM bortezomib for 14 days. The viability of the cells was measured by flow cytometry using a live cell gate (FSC/SSC). After selection, 750,000 cells were harvested and genomic DNA was extracted using the QiaAmp DNA Mini Kit (Qiagen). The PSMB5 exonic locus containing the mutation was PCR amplified, gel purified, and ligated into the pCR-Blunt vector using the Zero-Blunt cloning kit (Life Technologies). 8-15 colonies were Sanger sequenced for each sample.
Eight of these mutations were functionally validated by knocking each one into the genome separately at the native PSMB5 locus using active Cas9 cutting followed by HDR mediated by a DNA donor oligo (26, 27). To control for the effect of Cas9 cutting and HDR, a synonymous mutation not identified in our screen was knocked into each exon. Cas9 expressing K562 cells were electroporated with donor oligo and sgRNA and incubated for six days followed by subsequent selection with bortezomib. After 14 days, the viability of the cells was measured (FIG. 12). […] For the most resistant mutations, the PSMB5 locus was sequenced following bortezomib selection and the presence of the expected mutation was verified in the majority of non-frameshifted sequences (FIG. 13). Together, these experiments indicate that the technology provided herein selectively mutagenized an endogenously expressed protein target, identifying known and novel mutants that confer drug resistance.

Positions count from the first letter of the chain named. In names and notes the source's numbering stands.

As to “sgGFP.10: sgRNA targeting GFP, sequence CGTCGCCGTCCAGCTCGACC (SEQ ID NO: 38) (chemistry not given here)”, in the data set on GFP and mCherry, the “cells with mutations at both loci (neither GFP nor mCherry)” value amounted to 0.26%. This molecule gave a GFP low population with GFP of about 15%.

Turning to “sgmCherry.1: sgRNA targeting mCherry, sequence GCGGTCTGGGTGCCCTCGTA (SEQ ID NO: 81) (listed as DNA, chemistry not fully specified)”, the mCherry low population in the data set with mCherry is listed as about 15%. Moreover, the “cells with mutations at both loci (neither GFP nor mCherry)” value in the data set on GFP and mCherry was determined as 0.30%.

B1: R78N: PSMB5 variant, chr14: 23033640 C > A/T (protein, UniProt P28074 60-263, looked up, variant R78N)
Proteasome subunit beta type-5: TTTLAFKFRHGVIVAADSNATAGAYIASQTVKKVIEINPYLLGTMAGGAADCSFWERLLARQCRIYELRNKERISVAAASKLLANMVYQYKGMGLSMGTMICGWDKRGPGLYYVDSEGNRISGATFSVGSGSVYAYGVMDRGYSYDLEVEQAYDLARRAIYQATYRDAYSGGAVNLYHVREDGWIRVSSDNVADLHEKYSGSTP
As to B1, the “protection against bortezomib-induced cell death (viability)” value (“protection” for short) in the data set on PSMB5 was “strongly protective”.

B2: G242D: PSMB5 variant in exon 4, chr14: 23026156 C > T (protein, UniProt P28074 60-263, looked up, variant G242D)
Proteasome subunit beta type-5: B1 Proteasome subunit beta type-5 with N19R, G183D
As to B2, the “protection” value with PSMB5 is “strongly protective”.

B3: G82D: PSMB5 variant, chr14: 23033628 C > T (protein, UniProt P28074 60-263, looked up, variant G82D)
Proteasome subunit beta type-5: B1 Proteasome subunit beta type-5 with N19R, G23D
B3: in the data set with PSMB5, the “protection” value is given as “more modest protection”.

B4: L11L: PSMB5 synonymous mutation in exon 1, chr14: 23034851 G > A (protein, UniProt P28074 60-263, looked up)
Proteasome subunit beta type-5: B1 Proteasome subunit beta type-5 with N19R
modifications: synonymous mutation L11L
notes: PSMB5 synonymous mutation in exon 1, chr14: 23034851 G > A
B4: in the data set with PSMB5, the “protection” value was “more modest protection”.

B5: A108V: PSMB5 variant, chr14: 23033550 G > A; residue known to be involved in binding bortezomib (protein, UniProt P28074 60-263, looked up, variant A108V)
Proteasome subunit beta type-5: B1 Proteasome subunit beta type-5 with N19R, A49V
With B5, the “protection” value in the data set with PSMB5 is given as “strongly protective”.
